Data from US20160264649A1.

Legend:
Experiment in all cases: cell-based or functional assay
[1] = target: HIV-1 MGRM-D-028 Env (HIV-1)
[2] = target: HIV-1 MGRM-G-001 Env (HIV-1)
[3] = target: HIV-1 MGRM-F1-014 Env (HIV-1)
[4] = target: HIV-1 APV_6 Env on pseudovirus (HIV-1)
[5] = target: HIV-1 92RW020 Env (HIV-1)
[6] = target: HIV-1 92UG024 Env (HIV-1)
[7] = target: HIV-1 MGRM-G-024 Env (HIV-1)
[8] = target: HIV-1 MGRM-AE-006 Env (HIV-1)
[9] = target: HIV-1 MGRM-D-011 Env (HIV-1)
[10] = target: HIV-1 JRCSF Env on pseudovirus (HIV-1) (UniProt P20871)
[11] = target: HIV-1 92TH021 Env (HIV-1)
[12] = target: HIV-1 MGRM-G-019 Env (HIV-1)
[13] = target: HIV-1 JRCSF Env (HIV-1) (UniProt P20871)
[14] = target: HIV-1 MGRM-D-013 Env (HIV-1)
[15] = target: HIV-1 MGRM-D-002 Env (HIV-1)
[16] = target: HIV-1 MGRM-Chronic-B-024 Env on pseudovirus (HIV-1)
[17] = target: HIV-1 CAAN.A2 (Acute) Env on pseudovirus (HIV-1)
[18] = target: HIV-1 MGRM-C-015 Env on pseudovirus (HIV-1)
[19] = target: HIV-1 MGRM-C-017 Env on pseudovirus (HIV-1)
[20] = target: HIV-1 LAVI_C3 Env on pseudovirus (HIV-1)
[21] = target: HIV-1 MGRM-Chronic-B-010 Env on pseudovirus (HIV-1)
[22] = target: HIV-1 CMU02 Env (HIV-1)
[23] = target: HIV-1 92UG001 Env (HIV-1)
[24] = target: HIV-1 MGRM-AE-008 Env (HIV-1)
[25] = target: HIV-1 MGRM-Chronic-B-017 Env on pseudovirus (HIV-1)
[26] = target: HIV-1 IAVI-C3 Env (HIV-1)
[27] = target: HIV-1 MGRM-D-019 Env (HIV-1)
[28] = target: HIV-1 NL43 Env on pseudovirus (HIV-1)
[29] = target: HIV-1 93TH305 Env on pseudovirus (HIV-1)
[30] = target: HIV-1 TRO.11 (Acute) Env on pseudovirus (HIV-1)
[31] = target: HIV-1 94UG103 Env (HIV-1)

1496_C09 (PG9) (TCN-109) (antibody)
IC50 (µg/ml), pseudovirus neutralization [1]: 4.39 µg/mL
IC50 (µg/ml), pseudovirus neutralization [2]: 0.16 µg/mL
IC50 (pseudovirus neutralization) [3]: 0.01 µg/mL
IC50 [4]: 0.12 µg/mL
IC50, TZM-bl pseudovirus neutralization [5]: 0.1 µg/mL
neutralization IC50 [5]: 0.0637 µg/mL
neutralization IC90 [5]: 6.55 µg/mL
IC50 (µg/ml), pseudovirus neutralization [6]: 1.91 µg/mL
IC50 (µg/ml), pseudovirus neutralization [7]: 0.07 µg/mL
IC50 (µg/ml), pseudovirus neutralization [8]: 0.05 µg/mL
IC50 (µg/ml), pseudovirus neutralization [9]: 0.06 µg/mL
IC50 [10]: 0.003 µg/mL
IC50 (µg/ml), pseudovirus neutralization [11]: 0.09 µg/mL
neutralization IC50 [11]: 0.111 µg/mL
neutralization IC90 [11]: 1.99 µg/mL
IC50 (µg/ml), pseudovirus neutralization [12]: 0.67 µg/mL
neutralization IC50 [13]: < 0.0025 µg/mL
neutralization IC90 [13]: < 0.0025 µg/mL
IC50 (µg/ml), pseudovirus neutralization [14]: 0.06 µg/mL
IC50 (µg/ml), pseudovirus neutralization [15]: 0.027 µg/mL
IC50 [16]: 0.18 µg/mL
IC50 [17]: 5.67 µg/mL
IC50 [18]: 0.5 µg/mL
IC50 [19]: 1.52 µg/mL
IC50 [20]: 1.45 µg/mL
IC50 [21]: 0.004 µg/mL
IC50 (µg/ml), pseudovirus neutralization [22]: 7.69 µg/mL
IC50 (µg/ml), pseudovirus neutralization [23]: 41.8 µg/mL
IC50 (µg/ml), pseudovirus neutralization [24]: 10.6 µg/mL
IC50 [25]: 0.32 µg/mL
neutralization IC50 [26]: 12.9 µg/mL
IC50 (µg/ml), pseudovirus neutralization [27]: 0.03 µg/mL
IC50 [28]: 0.32 µg/mL
IC50 [29]: 2.08 µg/mL
IC50 [30]: 5.43 µg/mL
neutralization IC50 [31]: 0.173 µg/mL
neutralization IC90 [31]: 3.37 µg/mL
